{
  "source": "patent US20120231006A1",
  "about": "(Amgen, published 2012)",
  "key": {"human Orai1 [1]": {"molecular_target": "T1, human Orai1 (human, UniProt Q96D31 1-301)", "T1 sequence (Q96D31 whole entry)": "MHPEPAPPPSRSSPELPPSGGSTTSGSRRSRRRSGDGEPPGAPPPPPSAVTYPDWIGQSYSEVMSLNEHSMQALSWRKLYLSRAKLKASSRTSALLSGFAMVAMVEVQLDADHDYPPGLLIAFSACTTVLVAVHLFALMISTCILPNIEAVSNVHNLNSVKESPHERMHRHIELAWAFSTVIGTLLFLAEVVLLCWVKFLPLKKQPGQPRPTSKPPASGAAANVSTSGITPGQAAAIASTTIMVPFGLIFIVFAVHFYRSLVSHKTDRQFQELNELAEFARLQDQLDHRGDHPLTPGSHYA", "test": "cell-based or functional assay"}, "human Orai1 [2]": {"molecular_target": "T1, human Orai1", "test": "FACS Kd, AM1-CHO/hOrai1/hSTIM1-YFP cells", "in_short": "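Kd derived by n-curve analysis of free-antigen signal versus titrant concentration, using two cell concentrations. Free antigen taken as inverse GeoMean of live-gated cells after Cy5 anti-human Fc detection (5 μg/mL, 1 h, ice, dark). Washes used ice-cold D-PBS with 2% FBS.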"}, "[3]": {"molecular_target": "T2, mOrai1-hOrai1 ECL2 (HSD) protein (human/mouse chimera, UniProt Q8BWG9 1-304 (mouse entry))", "T2 construct": "also called Ch", "T2 sequence (Q8BWG9 other isoform, or with tags, fused parts or gaps)": "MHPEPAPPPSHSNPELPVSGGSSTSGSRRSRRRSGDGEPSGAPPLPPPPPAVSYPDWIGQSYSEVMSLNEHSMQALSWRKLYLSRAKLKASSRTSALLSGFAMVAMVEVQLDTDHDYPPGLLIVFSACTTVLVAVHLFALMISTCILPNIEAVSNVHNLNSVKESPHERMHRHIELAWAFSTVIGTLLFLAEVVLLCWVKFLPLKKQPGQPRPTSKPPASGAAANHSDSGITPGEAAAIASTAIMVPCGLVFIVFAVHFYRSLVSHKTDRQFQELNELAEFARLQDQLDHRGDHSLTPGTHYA", "test": "FACS, 293EBNA, RFI-POC grade", "text": "(§1) FIG. 16A-D illustrates the results of FACS analysis showing binding to the indicated mOrai1-hOrai1 ECL2 chimeric mutants expressed on the surface of HEK-293-EBNA cells. Transfected cells were stained first with recombinant monoclonal antibodies then counter-stained with a secondary phycoerythrin-labeled goat (“Gt”) anti-human (“Hu”) IgG F(ab′)₂ antibody fragment and visualized using FACS. In FIG. 16B and FIG. 16D, The values of Relative Fluorescence Intensity as Percent of Control (RFI-POC) are calculated from the relative fluorescence intensity geometric mean (Geo Mean). The geometric mean is an average calculated by multiplying a series of numbers and taking the nth root where n is the number of numbers in the series. It is a statistical average of a set of transformed numbers often used to represent a central tendency in a highly variable data set that minimizes the effects of extreme values.\n(§2) Table 11A and Table 11B feature a schematic representation of the POC data from FIG. 16B and FIG. 16D, respectively, where the binding results are recorded as (+++) denoting binding POC from 40% to 100%, (++) for POC of 5% to less than 40%, (+) for POC from 1% to less than 5% and (−) as lack of binding with POC less than 1%."}, "[4]": {"molecular_target": "T3, mOrai1-hOrai1 ECL2 (VIV) protein (human/mouse chimera, UniProt Q8BWG9 1-304 (mouse entry))", "T3 construct": "also called Ch", "T3 sequence (Q8BWG9 other isoform, or with tags, fused parts or gaps)": "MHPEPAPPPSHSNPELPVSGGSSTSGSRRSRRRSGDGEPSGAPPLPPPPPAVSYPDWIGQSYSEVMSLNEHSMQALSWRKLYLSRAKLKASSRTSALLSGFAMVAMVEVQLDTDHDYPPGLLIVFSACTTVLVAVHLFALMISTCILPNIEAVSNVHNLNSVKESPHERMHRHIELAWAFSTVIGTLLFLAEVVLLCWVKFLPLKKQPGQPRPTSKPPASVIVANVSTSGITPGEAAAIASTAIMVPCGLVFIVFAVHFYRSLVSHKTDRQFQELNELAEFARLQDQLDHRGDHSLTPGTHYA", "test": "FACS, 293EBNA, RFI-POC grade", "text": "as §1, §2"}, "[5]": {"molecular_target": "T4, mOrai1-hOrai1 ECL2 chimeric protein (human/mouse chimera, UniProt Q8BWG9 1-304 (mouse entry))", "T4 construct": "mouse Orai1 with human ECL2; also called Ch", "T4 sequence (Q8BWG9 other isoform, or with tags, fused parts or gaps mutant)": "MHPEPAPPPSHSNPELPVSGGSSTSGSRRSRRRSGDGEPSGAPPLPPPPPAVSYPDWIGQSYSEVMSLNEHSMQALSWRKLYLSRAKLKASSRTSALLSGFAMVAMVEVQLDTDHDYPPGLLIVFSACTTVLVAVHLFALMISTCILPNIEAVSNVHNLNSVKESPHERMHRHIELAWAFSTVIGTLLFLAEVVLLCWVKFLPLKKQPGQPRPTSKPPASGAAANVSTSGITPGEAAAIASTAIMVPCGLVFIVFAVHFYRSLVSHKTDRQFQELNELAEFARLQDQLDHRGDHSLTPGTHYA", "test": "FACS, 293EBNA, RFI-POC grade", "text": "as §1, §2"}, "human Orai1 [6]": {"molecular_target": "T1, human Orai1", "test": "KinExA, AM1-CHO/hOrai1/hSTIM1-YFP cells", "description": "Each equilibrium sample set was read in triplicate on the KinExA machine. For low [Ab] equilibrium samples 4 mL was run of each sample in triplicate. For high [Ab] equilibrium samples 300 μL was run of each sample in triplicate. […] For each equilibrium sample the free [Ab] would be detected by first running the coated beads through the flow cell, then after quick wash with the running buffer (1×PBS pH7.4+1% BSA+0.05% Sodium Azide) the equilibrium samples were passed through the beads followed by a quick wash with the running buffer. Then the secondary detection Ab, Gt anti Hu (H+ L) Cy5, was run through the flow cell at 1 μg/mL and 1000 μL per run. The KinExA voltage output signal was then used in KinExA software to calculate the Kd values for each antibody. From the plots at two different initial total [Ab] concentrations the Kd was obtained from curve fitting using n-curve analysis in KinExA Pro software (Sapidyne Instruments Inc., Boise Id.)."}, "[7]": {"molecular_target": "T5, hOrai1-mOrai1 ECL2 (…) protein (human/mouse chimera, UniProt Q96D31 1-301)", "T5 construct": "also called Ch", "test": "FACS, 293EBNA, RFI-POC grade", "parameters": "concentration or dose not given beside the values", "T5 sequence (Q96D31 other isoform, or with tags, fused parts or gaps)": "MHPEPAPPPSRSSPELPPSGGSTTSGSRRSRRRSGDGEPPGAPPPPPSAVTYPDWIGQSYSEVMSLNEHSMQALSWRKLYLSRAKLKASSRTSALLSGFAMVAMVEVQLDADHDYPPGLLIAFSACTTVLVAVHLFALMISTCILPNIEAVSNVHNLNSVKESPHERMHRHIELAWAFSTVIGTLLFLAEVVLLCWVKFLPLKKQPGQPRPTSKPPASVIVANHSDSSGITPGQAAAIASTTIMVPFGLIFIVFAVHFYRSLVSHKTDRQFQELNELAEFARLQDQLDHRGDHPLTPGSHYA"}, "[8]": {"molecular_target": "T6, hOrai1-mOrai1 ECL2 (SKPPA) protein (human/mouse chimera, UniProt Q96D31 1-301)", "T6 construct": "also called Ch", "T6 sequence (Q96D31 other isoform, or with tags, fused parts or gaps)": "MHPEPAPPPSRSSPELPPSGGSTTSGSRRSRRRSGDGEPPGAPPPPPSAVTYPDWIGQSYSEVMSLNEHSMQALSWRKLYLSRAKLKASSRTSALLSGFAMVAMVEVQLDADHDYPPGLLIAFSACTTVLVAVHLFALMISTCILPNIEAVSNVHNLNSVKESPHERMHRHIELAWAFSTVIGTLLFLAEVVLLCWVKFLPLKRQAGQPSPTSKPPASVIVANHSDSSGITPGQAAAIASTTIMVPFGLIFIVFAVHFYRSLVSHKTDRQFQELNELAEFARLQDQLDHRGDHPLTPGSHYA", "test": "FACS, 293EBNA, RFI-POC grade", "parameters": "concentration or dose not given beside the values"}, "[9]": {"molecular_target": "T7, hOrai1-mOrai1 ECL2 (…) protein (human/mouse chimera, UniProt Q96D31 1-301)", "T7 construct": "also called Ch", "test": "FACS, 293EBNA, RFI-POC grade", "parameters": "concentration or dose not given beside the values", "remark": "listed apart in the source", "T7 sequence (Q96D31 other isoform, or with tags, fused parts or gaps)": "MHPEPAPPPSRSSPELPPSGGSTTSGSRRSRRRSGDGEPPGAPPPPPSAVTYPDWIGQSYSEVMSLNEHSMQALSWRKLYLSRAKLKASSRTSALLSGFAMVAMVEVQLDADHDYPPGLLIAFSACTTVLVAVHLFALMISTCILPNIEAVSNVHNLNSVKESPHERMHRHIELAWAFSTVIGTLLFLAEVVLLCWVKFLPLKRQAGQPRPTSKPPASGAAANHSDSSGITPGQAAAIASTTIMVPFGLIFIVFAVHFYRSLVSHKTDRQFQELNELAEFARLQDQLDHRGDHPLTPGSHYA"}, "[10]": {"molecular_target": "T4, mOrai1-hOrai1 ECL2 chimeric protein", "test": "FACS, 293EBNA, RFI-POC grade", "parameters": "concentration or dose not given beside the values"}, "[11]": {"molecular_target": "T8, hOrai1-mOrai1 ECL2 (…) protein (human/mouse chimera, UniProt Q96D31 1-301)", "T8 construct": "also called Ch", "test": "FACS, 293EBNA, RFI-POC grade", "parameters": "concentration or dose not given beside the values", "remark": "listed apart in the source", "T8 sequence (Q96D31 other isoform, or with tags, fused parts or gaps)": "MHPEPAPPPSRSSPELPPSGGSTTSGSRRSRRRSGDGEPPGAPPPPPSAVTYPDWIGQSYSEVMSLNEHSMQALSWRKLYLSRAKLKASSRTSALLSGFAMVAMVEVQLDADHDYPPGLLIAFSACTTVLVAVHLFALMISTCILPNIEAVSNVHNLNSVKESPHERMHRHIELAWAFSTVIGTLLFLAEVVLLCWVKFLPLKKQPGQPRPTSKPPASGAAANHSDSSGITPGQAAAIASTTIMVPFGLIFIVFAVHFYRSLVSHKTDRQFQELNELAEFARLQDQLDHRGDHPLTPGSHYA"}, "[12]": {"molecular_target": "T9, hOrai1-mOrai1 ECL2 (RPTSKPPA) protein (human/mouse chimera, UniProt Q96D31 1-301)", "T9 construct": "also called Ch", "T9 sequence (Q96D31 other isoform, or with tags, fused parts or gaps)": "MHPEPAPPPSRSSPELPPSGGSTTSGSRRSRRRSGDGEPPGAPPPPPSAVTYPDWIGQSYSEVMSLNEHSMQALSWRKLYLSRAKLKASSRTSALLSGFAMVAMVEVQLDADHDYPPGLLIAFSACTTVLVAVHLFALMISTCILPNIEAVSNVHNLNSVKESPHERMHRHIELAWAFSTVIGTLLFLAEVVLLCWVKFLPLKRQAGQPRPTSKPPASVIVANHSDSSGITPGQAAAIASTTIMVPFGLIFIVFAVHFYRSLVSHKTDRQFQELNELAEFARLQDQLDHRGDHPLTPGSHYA", "test": "FACS, 293EBNA, RFI-POC grade", "parameters": "concentration or dose not given beside the values"}, "human Orai1 [13]": {"molecular_target": "T1, human Orai1", "test": "cell-based or functional assay", "remark": "listed apart in the source"}, "[14]": {"molecular_target": "T10, mOrai1-hOrai1 ECL2 (…) protein (human/mouse chimera, UniProt Q8BWG9 1-304 (mouse entry))", "T10 construct": "also called Ch", "test": "flow cytometry on HEK-293 cells transfected with the chimera (loss of binding experiment)", "T10 sequence (Q8BWG9 other isoform, or with tags, fused parts or gaps)": "as the sequence (Q8BWG9 other isoform, or with tags, fused parts or gaps mutant) above, with R212S, S215K, K216P, P218A, A219E, G221V, A222I, A223V, V226H, T228D counted along it"}, "[15]": {"molecular_target": "T11, mOrai1-hOrai1 ECL2 (…) protein (human/mouse chimera, UniProt Q8BWG9 1-304 (mouse entry))", "T11 construct": "also called Ch", "test": "flow cytometry on HEK-293 cells transfected with the chimera (loss of binding experiment)", "remark": "listed apart in the source", "T11 sequence (Q8BWG9 other isoform, or with tags, fused parts or gaps)": "as the sequence (Q8BWG9 other isoform, or with tags, fused parts or gaps mutant) above, with R212S, S215K, K216P, P218A, A219E, G221V, A222I, A223V counted along it"}, "[16]": {"molecular_target": "T12, mOrai1-hOrai1 ECL2 (KPPAE) protein (human/mouse chimera, UniProt Q8BWG9 1-304 (mouse entry))", "T12 construct": "also called Ch", "T12 sequence (Q8BWG9 other isoform, or with tags, fused parts or gaps)": "as the sequence (Q8BWG9 other isoform, or with tags, fused parts or gaps mutant) above, with S215K, K216P, P218A, A219E counted along it", "test": "flow cytometry on HEK-293 cells transfected with the chimera (loss of binding experiment)"}, "[17]": {"molecular_target": "T13, mOrai1-hOrai1 ECL2 (SPTKPPAE) protein (human/mouse chimera, UniProt Q8BWG9 1-304 (mouse entry))", "T13 construct": "also called Ch", "T13 sequence (Q8BWG9 other isoform, or with tags, fused parts or gaps)": "as the sequence (Q8BWG9 other isoform, or with tags, fused parts or gaps mutant) above, with R212S, S215K, K216P, P218A, A219E counted along it", "test": "flow cytometry on HEK-293 cells transfected with the chimera (loss of binding experiment)"}, "[18]": {"molecular_target": "T14, mOrai1-hOrai1 ECL2 (…) protein (human/mouse chimera, UniProt Q8BWG9 1-304 (mouse entry))", "T14 construct": "also called Ch", "test": "flow cytometry on HEK-293 cells transfected with the chimera (loss of binding experiment)", "remark": "listed apart in the source", "T14 sequence (Q8BWG9 other isoform, or with tags, fused parts or gaps)": "as the sequence (Q8BWG9 other isoform, or with tags, fused parts or gaps mutant) above, with K206R, P208A, R212S, S215K, K216P, P218A, A219E counted along it"}},
  "data": [
    {"binder": "mAb 2B7.1 (antibody, human IgG2, V domains shown, fully human, Campaign 1) VH: QVQLQQWGAGLLKPSETLSLTCAVYGGSFSGYYWSWIRQPPGKGLEWIGEIDHSGSTNYNPALKSRLTISVDTSKNQFSLKLSSVTAADTAVYYCARAGSGGYEDWFDPWGQGTLVTVSS VL: QSVLTQPPSVSGAPGQRVTISCTGSSSNIGTGYNVHWYQQFPRTDPKLLIYVYNIRPSGVPDRFSGSRSGTSASLAITGLQTEDEADYYCQSYDSSLSGVVFGGGTKLTVLG", "values": [
      {"measurement": "IC50, NFAT-mediated luciferase assay (FIG. 6B)", "setting": "human Orai1 [1]", "result": 4.2, "unit": "nM"},
      {"measurement": "IC50, NFAT-mediated luciferase assay (FIG. 6C)", "setting": "human Orai1 [1]", "result": 3.5, "unit": "nM"},
      {"measurement": "Kd", "setting": "human Orai1 [2]", "result": 0.133, "unit": "nM"},
      {"measurement": "POC (percent of control, FACS Geo Mean relative to Ch. 1)", "setting": "[3]", "result": "40 to 100", "unit": "%"},
      {"measurement": "POC (percent of control, FACS Geo Mean relative to Ch. 1)", "setting": "[4]", "result": "40 to 100", "unit": "%"},
      {"measurement": "POC (percent of control, FACS Geo Mean relative to Ch. 1)", "setting": "[5]", "result": "40 to 100", "unit": "%"},
      {"measurement": "Kd", "setting": "human Orai1 [6]", "result": 0.1, "unit": "nM"},
      {"measurement": "percent of control (POC) of FACS Geo Mean", "setting": "[7]", "result": "40 to 100", "unit": "%"},
      {"measurement": "percent of control (POC) of FACS Geo Mean", "setting": "[8]", "result": "5 to 40", "unit": "%"},
      {"measurement": "percent of control (POC) of FACS Geo Mean", "setting": "[9]", "result": "40 to 100", "unit": "%"},
      {"measurement": "percent of control (POC) of FACS Geo Mean", "setting": "[10]", "result": "40 to 100", "unit": "%"},
      {"measurement": "percent of control (POC) of FACS Geo Mean", "setting": "[11]", "result": "40 to 100", "unit": "%"},
      {"measurement": "percent of control (POC) of FACS Geo Mean", "setting": "[12]", "result": "40 to 100", "unit": "%"},
      {"measurement": "IC50 IFN-γ, whole blood Donor A", "setting": "human Orai1 [13]", "result": 4.6, "unit": "nM"},
      {"measurement": "IC50 IFN-γ, whole blood Donor B", "setting": "human Orai1 [13]", "result": 14, "unit": "nM"},
      {"measurement": "IC50 IL-2, whole blood Donor A", "setting": "human Orai1 [13]", "result": 3.5, "unit": "nM"},
      {"measurement": "IC50 IL-2, whole blood Donor B", "setting": "human Orai1 [13]", "result": 4.67, "unit": "nM"},
      {"measurement": "binding result", "setting": "[14]", "result": "no binding"},
      {"measurement": "binding result", "setting": "[15]", "result": "no binding"},
      {"measurement": "binding result", "setting": "[16]", "result": "no binding"},
      {"measurement": "binding result", "setting": "[17]", "result": "no binding"},
      {"measurement": "binding result", "setting": "[18]", "result": "no binding"}
    ]}
  ]
}
